Experimental data: patent US20040038299A1 (Pfizer, published 2004)

Biological target: T1, N-terminal FLAG-tagged full length LTβR (UniProt P36941 31-435)
T1 construct: whole, on cells; Overexpressed in HEK293 cells, immunoprecipitated from lysate with M2 beads; also called Flag-tagged LTβR; pFlag-CMV2-LTβR; not shown: N-terminal FLAG tag from pFLAG-CMV2
Experiment: co-immunoprecipitation in transfected HEK293 cells, Western blot
Method: For immunoprecipitation, 1×10⁸ U937 cells were treated with FLAG-LIGHT at 20 ng/ml for different time or left untreated. Cells were then harvested and lysed in 4 ml of lysis buffer (see above). Cell debris was removed by centrifugation at 14,000+ g for 10 min and resulting lysate was pre-cleared with Gamma Binding beads (Pharmacia Biotech) for 1 hour at 4° C. Then 20 µl of M2 beads were added to cell lysate and incubated at 4° C. for 3 hours. After binding, beads were washed five times with lysis buffer. Immune complexes bound to the beads were eluted with sample buffer, resolve on 4-12% SDS-PAGE gels, transferred to PVDF membrane and probed with TRAF2, TRAF3 or cIAP1 antibody. Signals were detected with HRP-conjugated secondary antibody and ECL detection kits (Amersham Pharmacia Biotech). […] The presence of Smac, LTβR, TRAF2 and cIAP1 in the immune complex were then analyzed by Western blots.
Although two peptides from Smac in the LIGHT-LTβR complex were detected by mass spectrometry, an endogenous association was not detected using Smac antibodies (Alexis Biochemicals or Cell Signaling Technology). […] Smac was expressed as a C-terminal HA-tagged fusion protein and appeared as a doublet of 28 kDa and 23 kDa on the Western blot. […]

T1 sequence (P36941 31-435): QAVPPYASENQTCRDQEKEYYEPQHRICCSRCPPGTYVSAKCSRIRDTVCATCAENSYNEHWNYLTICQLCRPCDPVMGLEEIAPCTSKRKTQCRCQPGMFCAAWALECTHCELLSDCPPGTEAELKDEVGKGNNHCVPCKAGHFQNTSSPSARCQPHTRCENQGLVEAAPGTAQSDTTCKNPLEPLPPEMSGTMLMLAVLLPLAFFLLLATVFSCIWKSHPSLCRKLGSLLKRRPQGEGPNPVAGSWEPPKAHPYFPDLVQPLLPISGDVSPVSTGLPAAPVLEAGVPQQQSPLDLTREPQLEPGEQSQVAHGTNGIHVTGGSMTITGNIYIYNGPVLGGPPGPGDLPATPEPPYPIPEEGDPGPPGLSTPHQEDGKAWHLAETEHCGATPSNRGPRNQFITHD

B1: Δ76 deletion mutant of Smac with a C-terminal HA-tag (other)
chain: RAVSLVTDSTSTFLSQTTYALIEAITEYTKAVYTLTSLYRQYTSLLGKMNSEEEDEVWQVIIGARAEMTSKHQEYLKLETTWMTAVGLSEMAAEAAYQTGADQASITARNHIQLVKLQVEEVHQLSRKAETKLAEAQIEELRQKTQEEGEERAESEQEAYLRED
notes: also called ?76Smac; ?76 Smac; not shown: C-terminal HA tag
binding result: no binding
